Legend:
[1] = target: FrsA (Fermentation Respiration Switch) protein from Vibrio vulnificus, wild type, recombinant (Vibrio vulnificus) (UniProt Q7MN61); experiment: cell-based or functional assay
[2] = target: non-phosphorylated recombinant IIA^Glc protein (crr gene product) from Vibrio vulnificus
[3] = target: phosphorylated recombinant IIA^Glc protein (crr gene product) from Vibrio vulnificus

Row | Molecule | catalytic activity of FrsA as fold over PDC [1] | Km (pyruvate decarboxylation by FrsA with dephospho-IIA^Glc added) [2] | kcat (pyruvate decarboxylation by FrsA with dephospho-IIA^Glc added) [2] | kcat/Km (pyruvate decarboxylation by FrsA with dephospho-IIA^Glc added) [2] | Km (pyruvate decarboxylation by FrsA with phospho-IIA^Glc added) [3] | kcat (pyruvate decarboxylation by FrsA with phospho-IIA^Glc added) [3] | kcat/Km (pyruvate decarboxylation by FrsA with phospho-IIA^Glc added) [3]
1 | non-phosphorylated recombinant IIA^Glc protein (crr gene product) from Vibrio vulnificus | 17 times |  |  |  |  |  | 
2 | FrsA (Fermentation Respiration Switch) protein from Vibrio vulnificus, wild type, recombinant (protein) MSEEVSKNLSETLFVKHKQAIETSALTQYMPTSQSLLDEIKEKNGFSWYRNLRRLQWVWQGVDPIEQEQVLARIASSKHSRTDEQWLDTVMGYHSGNWAYEWTRLGMEHQKRAGEMTNEAASEALFSASLCYSIAGYPHLKSDNLAIQAQVLANSAYLEAAKKSKYIIKQLEIPFEKGKITAHLHLTNTDKPHPVVIVSAGLDSLQTDMWRLFRDHLAKHDIAMLTVDMPSVGYSSKYPLTEDYSRLHQAVLNELFSIPYVDHHRVGLIGFRFGGNAMVRLSFLEQERIKACVILGAPIHDIFASPQKLQQMPKMYLDVLASRLGKSVVDIYSLSGQMAAWSLKVQGFLSSRKTKVPILAMSLEGDPVSPYSDNQMVAFFSTYGKAKKISSKTITQGYEQSLDLAIKWLEDELLR |  | 390 µM | 2980 ± 158 s⁻¹ | 7.64e+06 ± 713000 M⁻¹ s⁻¹ | 390 µM | 1310 ± 48 s⁻¹ | 3.36e+06 ± 150000 M⁻¹ s⁻¹

Source: patent US20150299686A1
